Data reported in patent US20220096654A1, “PYRROLOBENZODIAZEPINE-ANTIBODY CONJUGATES AND USES THEREOF” (ADC THERAPEUTICS SA, priority 2020, published 2022).

Tests used:
Jurkat (CD45+) = assay: Cell viability assay 72 h (PrestoBlue), Jurkat; format: cell-based, human; details: drug-linker B1
Experimental: (§1) OCIM1, Jurkat and Nalm6 cells were seeded at 0.5×10^5/mL were cultured for 72 hours in presence of Mab or ADC or medium (in triplicate wells) in wells of flat bottom 96-well plates. 293T cells were seeded at 9.3×10^3 cells per well in flat bottom 96-well plates and allowed to adhere the plate for up to 24 hours. 293T cells were subsequently cultured with Mab or ADC or medium (in triplicate wells) for 72 hours. PrestoBlue® Cell viability Reagent (Thermo Fisher Scientific) was added to each and incubated for up to 1.5 hours. Fluorescence intensity from each well was detected using a FLUOstar OPTIMA microplate reader (BMG Labtech). Data points are mean±s.d. for representative experiments.

human CD45+ cells [1] = assay: Engraftment of a second transplant of GFP+ autologous CD34+ cells in humanised NSG mice after conditioning; format: in vivo; details: 1 mg/kg (combination 0.5 mg/kg each); 9 weeks after GFP+ cell transplant
Experimental: Adult female NSG mice were sublethally irradiated with 2.5 Gy on the day before transplantation (day −1). Cryopreserved purified CD34+ cells from mobilized peripheral blood from a normal donor were thawed and 0.5×10^6 cells in PBS were injected intravenously into the tail vein of mice (day 0). Human engraftment (human CD45+ cells) in the blood of mice was assessed at week 8. Mice were assigned to treatment cohorts so that the median human CD45+ engraftment in the blood for each cohort was as similar as possible. Mice were injected with 1 mg/kg Mab or ADC or a combination of YTH MAbs (0.5 mg/kg each) or YTH ADCs (0.5 mg/kg each) intravenously via the tail vein. Mice were subsequently transplanted with lentivirally transduced green fluorescent protein (GFP) autologous CD34+ cells (Week 10). A separate cohort of sublethally irradiated (non-humanized) NSG were injected with the same batch of GFP transduced cells served as a positive control for GFP+ human cell engraftment. Nine weeks after GFP+ cell transplant, mice were culled and blood, spleen and bone marrow taken for analysis.

293T (CD45-) = assay: Cell viability assay 5 days (PrestoBlue), 293T; format: cell-based, human; details: rat IgG2b ADC, n=3
Experimental: OCIM1, Jurkat and Nalm6 cells were seeded at a final concentration of 1.275×10^4/mL and for 5 days in presence of rat IgG2b Mab or ADC or medium (in triplicate) in wells of flat bottom 96-well plates. 293T cells were seeded at 9.3×10^3 cells per 100 uL per well in flat bottom 96-well plates and allowed to adhere the plate for up to 24 hours. 293T cells were subsequently cultured with rat IgG2b Mabs or ADC or medium (in triplicate wells) as described above. PrestoBlue® Cell viability Reagent (Thermo Fisher Scientific) was added to each and incubated for up to 1.5 hours. Fluorescence intensity from each well was detected using a FLUOstar OPTIMA microplate reader (BMG Labtech). Data was plotted using Prism 8.0 and sigmoid dose-response non-linear regression was used to determine EC50 values. Data points are mean±s.d. for representative experiments.

human CD34+ cells = assay: Ex vivo treatment of CD34+ cells with Mab or ADC prior to engraftment in NSG mice; details: CD34+ cells treated at 1 nM and 0.1 nM for 4 hours before transplantation; week 8
Experimental: Adult female NSG mice were sublethally irradiated with 2.5 Gy on the day before transplantation. Cryopreserved purified CD34+ cells from mobilized peripheral blood from a normal donor were thawed and cultured in complete medium (RPMI 1640 plus 10% fetal calf serum) in presence of Mab, ADC or medium alone for 4 hours. Cells were washed in phosphate buffered saline (PBS) and 0.5×10^6 cells in PBS were injected intravenously into the tail vein of mice. Engraftment of transplanted human cells (hCD45+) in the bone marrow of mice was determined by flow cytometry at 8 weeks after transplantation.

Nalm6 (CD45-) = assay: Cell viability assay 72 h (PrestoBlue), Nalm6; format: cell-based, human; details: drug-linker B1
Experimental: as §1

[2] = tested on: luciferase expressing human CD45+ Jurkat cells; assay: Jurkat leukaemia model in NSG mice (bioluminescence, survival); format: in vivo; details: 1 mg/kg; for mice remained leukaemia free: day 16
Experimental: Adult NSG mice were sublethally irradiated with 2 Gy on the day before injection of cells. 5×10^6 fire fly luciferase expressing Jurkat cells in PBS were injected intravenously into the tail vein of mice. On the following day PBS, MAbs or ADC were injected intravenously into the tail vein at a dose of 1 mg/kg. Mice were regularly monitored for signs of morbidity and weight loss for the duration of the experiment. For imaging, mice were injected intraperitoneally with 3 mg D-luciferin in PBS. Mice were initially anesthetized with 4% isoflurane and then maintained at 2% isoflurane. Ten minutes after injection of D-luciferin, mice were imaged inside a IVIS Lumina III (PerkinElmer). A sub-saturating image was captured using the auto-exposure setting in the Living Image software.

human CD45+ cells [3] = assay: Allogeneic stem cell transplant model in humanized NSG mice (YTH24.5-B1 conditioning); format: in vivo; details: 1 mg/kg
Experimental: Adult NSG mice (Charles River Laboratories) were sublethally irradiated with 2.5 Gy in a ^137Cs irradiator. On the following day, mice were injected with 0.5×10^6 freshly thawed cryopreserved human CD34+ cells from a health donor were injected via the tail vein in 150 μL PBS using a 29 gauge MicroFine Plus insulin syringe (BD). Engraftment of human cells in the blood was assessed periodically from 6 weeks after transplantation. At 10 weeks post-transplant, humanized NSG mice were assigned into cohorts with similar median human CD45+ cell engraftment in the blood, as determined by flow cytometry. Mice were injected with PBS or 1 mg/kg YTH24.5-B1. Sixteen 16 days after treatment, mice were transplanted with 0.5×10^6 GFP+CD34+ cells from another healthy donor. Irradiated NSG […] were also transplanted with the GFP+CD34+ from the allogeneic healthy donor as a control for engraftment of the GFP+CD34+ cells. 8 weeks after transplantation of GFP+ cells, mice were culled and blood, spleen and bone marrow taken for analysis by flow cytometry.

fLuc+ OCIM1 cells = assay: Established AML model in NSG mice, treatment 10 days post-injection; format: in vivo; details: cohorts of 5 mice, all tumor-bearing
Experimental: NSG mice were transplanted with 7.5×10^6 fLuc+ OCIM1 cells i.v. At 10 days post-injection of AML cells, unconjugated antibody or ADCs were injected i.v. via a tail vein at a dose of 1 mg/kg or 5 mg/kg. Mice were regularly monitored for signs of morbidity for the duration of the experiment. For imaging, mice were injected intraperitoneally with 200 μl of 15 mg/mL D-luciferin (Regis Technologies) in PBS. Mice were subsequently anesthetized with 4% isoflurane and maintained at 2% isoflurane. Ten minutes after injection of D-luciferin, mice were placed with anterior side up inside a IVIS Lumina III (PerkinElmer). A sub-saturating image was captured using the auto-exposure setting in the Living Image software (v4.5). Quantification and preparation of images was also carried out using the same software.

Molecule	EC50 values, viability assay, Jurkat (CD45+) (Jurkat (CD45+))	GFP+CD34+ out of total human CD34+ cells in the bone marrow (human CD45+ cells [1]) [%]	EC50 (293T (CD45-)) [nM]	engraftment of human CD45+ cells in the bone marrow of NSG mice (human CD34+ cells)	EC50 (Nalm6 (CD45-)) [nM]	surviving mice at end of day 70 [2]	mice remained leukaemia free [2]	mean % hCD45 engraftment in the bone marrow (human CD45+ cells [3]; 8 weeks after allogeneic GFP+ cells, PBS 37.5%) [%]	percentage GFP+hCD45+ cells of all human CD45+ cells in bone marrow (mean) (human CD45+ cells [3]; PBS 2.1%, irradiation control 41.3%) [%]	GFP+hCD34+ cells within the human CD34+ compartment in the bone marrow (mean) (human CD45+ cells [3]; PBS 3.7%) [%]	mice alive at 60 days (fLuc+ OCIM1 cells)
YTH54.12-B1: rat IgG2b anti-CD45 antibody YTH54.12 conjugated to cleavable PBD drug-linker B1 (drawing 43) (conjugate) heavy: EVQLVESGGGLVQPGGSMKLSCAASGFTFSDYYMAWVRQAPKKGLEWVASMSFAGSSTYYGDSVKGRFTISRDNAKTTLYLQMNSLRSEDTATYYCARMYTTDYYLYWYFDFWGPGTMVTVSSAQTTAPSVYPLAPGCGDTTSSTVTLGCLVKGYFPEPVTVTWNSGALSSDVHTFPAVLQSGLYTLTSSVTSSTWPSQTVTCNVAHPASSTKVDKKVERRNGGIGHKCPTCPTCHKCPVPELLGGPSVFIFPPKPKDILLISQNAKVTCVVVDVSEEEPDVQFSWFVNNVEVHTAQTQPREEQYNSTFRVVSALPIQHQDWMSGKEFKCKVNNKALPSPIEKTISKPKGLVRKPQVYVMGPPTEQLTEQTVSLTCLTSGFLPNDIGVEWTSNGHIEKNYKNTEPVMDSDGSFFMYSKLNVERSRWDSRAPFVCSVVHEGLHNHHVEKSISRPPGK light: DVQMTQSPSYLAASPGESVSISCKASKSISNYLAWYQQKPGEANKILIYSGSTLQSGTPSRFSGSGSGTDFSLTIRNLEPEDFAVYYCQQYDEKPLTFGSGTKLEIKRADAAPTVSIFPPSMEQLTSGGATVVCFVNNFYPRDISVKWKIDGSEQRDGVLDSVTDQDSKDSTYSMSSTLSLTKVEYERHNLYTCEVVHKTSSSPVVKSFNRNEC	low pM range	~80	> 6	prevented engraftment	4.23	had surviving mice	4 of 5				
YTH24.5-B1: rat IgG2b anti-CD45 antibody YTH24.5 conjugated to cleavable PBD drug-linker B1 (drawing 43) (conjugate) heavy: QVNLLQSGAALVKPGASVKLSCKASSYTFTDYYIHWVKQSHGKTLEWIGYINPKSGFTNYNEKFRRKATLTVDKSTNTAYMDISRLTSEDSATYYCTRRTGVIPMDAWGQGASVTVSSAQTTAPSVYPLAPGCGDTTSSTVTLGCLVKGYFPEPVTVTWNSGALSSDVHTFPAVLQSGLYTLTSSVTSSTWPSQTVTCNVAHPASSTKVDKKVERRNGGIGHKCPTCPTCHKCPVPELLGGPSVFIFPPKPKDILLISQNAKVTCVVVDVSEEEPDVQFSWFVNNVEVHTAQTQPREEQYNSTFRVVSALPIQHQDWMSGKEFKCKVNNKALPSPIEKTISKPKGLVRKPQVYVMGPPTEQLTEQTVSLTCLTSGFLPNDIGVEWTSNGHIEKNYKNTEPVMDSDGSFFMYSKLNVERSRWDSRAPFVCSVVHEGLHNHHVEKSISRPPGK light: DVVMTQTPVSLSVSLGGQVSISCRSSQSFVSSDGNTYLNWYLQKPGQSPQLLIYKVSNRLSGVPDRFSGSGSGTDFTLKISRVEHDDLGVYYCGQASKIPLTFGSGTKLEIKRADAAPTVSIFPPSMEQLTSGGATVVCFVNNFYPRDISVKWKIDGSEQRDGVLDSVTDQDSKDSTYSMSSTLSLTKVEYERHNLYTCEVVHKTSSSPVVKSFNRNEC	low pM range	~80	> 6	prevented engraftment	2.83	had surviving mice	5 of 5	9.08	29.0	56.6	4/5
